EC50 data for 2 sequences are collected here from the supplement of paper PMC6379048.

For data set [1], the target named is T1, UPF1 (UniProt Q92900).
T1 sequence: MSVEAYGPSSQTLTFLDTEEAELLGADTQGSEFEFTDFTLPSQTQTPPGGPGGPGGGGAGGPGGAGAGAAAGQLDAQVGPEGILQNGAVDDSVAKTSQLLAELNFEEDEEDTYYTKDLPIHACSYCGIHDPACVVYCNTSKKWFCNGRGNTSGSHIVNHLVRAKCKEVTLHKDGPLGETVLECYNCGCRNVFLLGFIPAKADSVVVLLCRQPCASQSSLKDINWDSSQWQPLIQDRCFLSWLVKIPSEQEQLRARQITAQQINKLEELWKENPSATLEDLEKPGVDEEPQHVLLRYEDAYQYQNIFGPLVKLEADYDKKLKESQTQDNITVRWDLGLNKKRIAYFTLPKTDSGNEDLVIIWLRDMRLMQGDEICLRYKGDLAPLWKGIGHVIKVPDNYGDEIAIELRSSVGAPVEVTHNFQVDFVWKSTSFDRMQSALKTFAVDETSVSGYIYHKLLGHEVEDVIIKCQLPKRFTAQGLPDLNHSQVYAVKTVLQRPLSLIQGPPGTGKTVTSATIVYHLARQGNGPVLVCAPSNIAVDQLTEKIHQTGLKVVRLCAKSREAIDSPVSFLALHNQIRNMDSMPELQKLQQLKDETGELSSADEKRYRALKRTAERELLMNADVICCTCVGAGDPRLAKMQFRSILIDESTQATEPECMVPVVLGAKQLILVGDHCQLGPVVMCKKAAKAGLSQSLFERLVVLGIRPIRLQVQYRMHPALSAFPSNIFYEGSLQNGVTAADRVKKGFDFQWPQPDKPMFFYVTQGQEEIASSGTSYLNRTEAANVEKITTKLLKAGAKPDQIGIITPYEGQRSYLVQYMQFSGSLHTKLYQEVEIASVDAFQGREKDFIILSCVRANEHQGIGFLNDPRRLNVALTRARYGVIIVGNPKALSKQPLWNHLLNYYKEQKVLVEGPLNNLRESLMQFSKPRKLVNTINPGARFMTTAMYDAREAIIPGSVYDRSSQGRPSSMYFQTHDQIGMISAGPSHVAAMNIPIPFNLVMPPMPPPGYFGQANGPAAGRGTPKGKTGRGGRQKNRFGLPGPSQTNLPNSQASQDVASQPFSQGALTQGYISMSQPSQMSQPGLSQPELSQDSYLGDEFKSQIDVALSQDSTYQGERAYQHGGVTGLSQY
Briefly: EC50 of free RNA motif oligo competing protein binding to immobilised probe. In outline: (§1)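 Kd was calculated as EC50, taken from a four-parameter log-logistic fit, multiplied by a protein-dependent depletion factor. The assay used HEK293-FT lysate (2.5 mg protein/well) pre-incubated for 1 h at 4°C with free RNA oligos (0 nM to 30 μM), then incubated for 30 min at 4°C with the matching oligos bound through a 5′-amino-C6 linker to NHS-Sepharose beads. Bound proteins were measured by label-free LC-MS/MS and normalised to the control.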

For data set [2], the target named is T2, HNRNPM (UniProt P52272).
T2 sequence: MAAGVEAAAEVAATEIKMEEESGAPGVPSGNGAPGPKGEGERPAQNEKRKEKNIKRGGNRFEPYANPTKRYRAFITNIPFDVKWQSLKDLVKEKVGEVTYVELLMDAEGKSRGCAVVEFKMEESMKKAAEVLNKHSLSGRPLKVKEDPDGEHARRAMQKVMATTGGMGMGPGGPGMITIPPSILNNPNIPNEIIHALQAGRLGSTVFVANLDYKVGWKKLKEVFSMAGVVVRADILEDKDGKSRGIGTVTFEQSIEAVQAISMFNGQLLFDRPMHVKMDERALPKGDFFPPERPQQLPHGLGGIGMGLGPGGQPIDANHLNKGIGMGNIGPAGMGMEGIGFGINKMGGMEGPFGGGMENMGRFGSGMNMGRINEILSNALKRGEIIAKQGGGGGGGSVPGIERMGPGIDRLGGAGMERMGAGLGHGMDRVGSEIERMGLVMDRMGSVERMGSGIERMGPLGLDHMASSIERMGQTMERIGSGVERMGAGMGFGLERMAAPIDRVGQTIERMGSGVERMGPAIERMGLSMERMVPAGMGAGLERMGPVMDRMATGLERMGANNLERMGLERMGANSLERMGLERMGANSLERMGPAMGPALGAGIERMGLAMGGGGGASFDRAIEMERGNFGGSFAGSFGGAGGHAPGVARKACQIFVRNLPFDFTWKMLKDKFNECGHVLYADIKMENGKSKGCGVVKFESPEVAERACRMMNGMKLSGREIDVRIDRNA
Described as above. An outline of the steps: as §1

By EC50 is commonly meant the concentration that produces a half-maximal response. Read a high EC50 as a less potent agent. As to AAUAAA, the EC50 in data set [1] was 4.9 µM. That is a single-digit micromolar value.

Regarding UAUUUAU, the 50% effective concentration (EC50) in data set [2] was 6.8 µM.
